Measured values published in patent publication US20160159924A1 (Novo Nordisk, published 2016).

These binders were tested against T1, recombinant human sc-uPA (human, UniProt P00749 21-431) (assay: SPR, mAb immobilised).
T1 construct: 411 amino acid single-chain zymogen expressed in HEK293; the 20-residue signal peptide is not present in the mature protein; also called human single-chain uPA; pro-uPA
Protocol: The binding affinity to recombinant human sc-uPA protein (SEQ ID NO:1) was measured by surface plasmon resonance (SPR).
The experiments were performed on a Biacore™ instrument (GE Healthcare) and analysed with the BIAcore 4000 Evaluation Software. Anti-human uPA mAb variants were directly immobilized at 150-600 RU on flow cells of a CM5 sensor chip (GE Healthcare; cat. # BR-1000-12) via amine coupling, respectively. Recombinant human sc-uPA was diluted in HBS-N (GE Healthcare Cat BR-1006-70) with 1% BSA buffer with a dilution factor 3× ranging 1000-0.13 nM. Recombinant human sc-uPA was injected for 60 s, followed by a 600 s dissociation phase. Binding curves were measured at 25° C. with a flow rate of 30 μL/min. Regeneration of the chip surface was performed with pH1.5 Glycine for 25 s at 30 μl/min. Determination of the kinetic parameters was performed by fitting with a 1:1 binding model. Binding affinities were calculated and are stated in Table 17 below.

Binder	Kd
rec0266-0000-0010-VH_D95A (antibody, mouse IgG1, V domains shown) VH: DVKLVESGGGLVKPGGSLKLSCVASGFTFSSYTMSWVRQTPEKRLEWVATISGGGSHIYYADSVKGRFTISRDNAKNTLYLQMSSLKSEDTAIYYCTRAGRDGSWFAYWGQGTLVTVSA VL: DIVMTQSPATLSVTPGDRVSLSCRTSQSIGDYLHWYQQKSHESPRLLIKYVSQSISGIPSRFSGSGSGSDFTLSINSVESEDVGVYYCQNSHSFPLTFGSGTKLELKR	2.6 nM
rec0266-0000-0010-VH_D95E (antibody, mouse IgG1, V domains shown) VH: DVKLVESGGGLVKPGGSLKLSCVASGFTFSSYTMSWVRQTPEKRLEWVATISGGGSHIYYADSVKGRFTISRDNAKNTLYLQMSSLKSEDTAIYYCTREGRDGSWFAYWGQGTLVTVSA VL: DIVMTQSPATLSVTPGDRVSLSCRTSQSIGDYLHWYQQKSHESPRLLIKYVSQSISGIPSRFSGSGSGSDFTLSINSVESEDVGVYYCQNSHSFPLTFGSGTKLELKR	2 nM
rec0266-0000-0010-VH_D95R (antibody, mouse IgG1, V domains shown) VH: DVKLVESGGGLVKPGGSLKLSCVASGFTFSSYTMSWVRQTPEKRLEWVATISGGGSHIYYADSVKGRFTISRDNAKNTLYLQMSSLKSEDTAIYYCTRRGRDGSWFAYWGQGTLVTVSA VL: DIVMTQSPATLSVTPGDRVSLSCRTSQSIGDYLHWYQQKSHESPRLLIKYVSQSISGIPSRFSGSGSGSDFTLSINSVESEDVGVYYCQNSHSFPLTFGSGTKLELKR	1.3 nM
rec0266-0000-0010-VH_D95V (antibody, mouse IgG1, V domains shown) VH: DVKLVESGGGLVKPGGSLKLSCVASGFTFSSYTMSWVRQTPEKRLEWVATISGGGSHIYYADSVKGRFTISRDNAKNTLYLQMSSLKSEDTAIYYCTRVGRDGSWFAYWGQGTLVTVSA VL: DIVMTQSPATLSVTPGDRVSLSCRTSQSIGDYLHWYQQKSHESPRLLIKYVSQSISGIPSRFSGSGSGSDFTLSINSVESEDVGVYYCQNSHSFPLTFGSGTKLELKR	0.8 nM
rec0266-0000-0010-VH_D95S (antibody, mouse IgG1, V domains shown) VH: DVKLVESGGGLVKPGGSLKLSCVASGFTFSSYTMSWVRQTPEKRLEWVATISGGGSHIYYADSVKGRFTISRDNAKNTLYLQMSSLKSEDTAIYYCTRSGRDGSWFAYWGQGTLVTVSA VL: DIVMTQSPATLSVTPGDRVSLSCRTSQSIGDYLHWYQQKSHESPRLLIKYVSQSISGIPSRFSGSGSGSDFTLSINSVESEDVGVYYCQNSHSFPLTFGSGTKLELKR	4 nM
rec0266-0000-0010-VH_D95L (antibody, mouse IgG1, V domains shown) VH: DVKLVESGGGLVKPGGSLKLSCVASGFTFSSYTMSWVRQTPEKRLEWVATISGGGSHIYYADSVKGRFTISRDNAKNTLYLQMSSLKSEDTAIYYCTRLGRDGSWFAYWGQGTLVTVSA VL: DIVMTQSPATLSVTPGDRVSLSCRTSQSIGDYLHWYQQKSHESPRLLIKYVSQSISGIPSRFSGSGSGSDFTLSINSVESEDVGVYYCQNSHSFPLTFGSGTKLELKR	4.7 nM
rec0266-0000-0010-VH_D95T (antibody, mouse IgG1, V domains shown) VH: DVKLVESGGGLVKPGGSLKLSCVASGFTFSSYTMSWVRQTPEKRLEWVATISGGGSHIYYADSVKGRFTISRDNAKNTLYLQMSSLKSEDTAIYYCTRTGRDGSWFAYWGQGTLVTVSA VL: DIVMTQSPATLSVTPGDRVSLSCRTSQSIGDYLHWYQQKSHESPRLLIKYVSQSISGIPSRFSGSGSGSDFTLSINSVESEDVGVYYCQNSHSFPLTFGSGTKLELKR	1.5 nM
rec0266-0000-0010-VH_D95G (antibody, mouse IgG1, V domains shown) VH: DVKLVESGGGLVKPGGSLKLSCVASGFTFSSYTMSWVRQTPEKRLEWVATISGGGSHIYYADSVKGRFTISRDNAKNTLYLQMSSLKSEDTAIYYCTRGGRDGSWFAYWGQGTLVTVSA VL: DIVMTQSPATLSVTPGDRVSLSCRTSQSIGDYLHWYQQKSHESPRLLIKYVSQSISGIPSRFSGSGSGSDFTLSINSVESEDVGVYYCQNSHSFPLTFGSGTKLELKR	12 nM
rec0266-0000-0010-VH_D98A (antibody, mouse IgG1, V domains shown) VH: DVKLVESGGGLVKPGGSLKLSCVASGFTFSSYTMSWVRQTPEKRLEWVATISGGGSHIYYADSVKGRFTISRDNAKNTLYLQMSSLKSEDTAIYYCTRDGRAGSWFAYWGQGTLVTVSA VL: DIVMTQSPATLSVTPGDRVSLSCRTSQSIGDYLHWYQQKSHESPRLLIKYVSQSISGIPSRFSGSGSGSDFTLSINSVESEDVGVYYCQNSHSFPLTFGSGTKLELKR	0.95 nM
rec0266-0000-0010-VH_D95I (antibody, mouse IgG1, V domains shown) VH: DVKLVESGGGLVKPGGSLKLSCVASGFTFSSYTMSWVRQTPEKRLEWVATISGGGSHIYYADSVKGRFTISRDNAKNTLYLQMSSLKSEDTAIYYCTRIGRDGSWFAYWGQGTLVTVSA VL: DIVMTQSPATLSVTPGDRVSLSCRTSQSIGDYLHWYQQKSHESPRLLIKYVSQSISGIPSRFSGSGSGSDFTLSINSVESEDVGVYYCQNSHSFPLTFGSGTKLELKR	1.4 nM
rec0266-0000-0010-VH_D95Y (antibody, mouse IgG1, V domains shown) VH: DVKLVESGGGLVKPGGSLKLSCVASGFTFSSYTMSWVRQTPEKRLEWVATISGGGSHIYYADSVKGRFTISRDNAKNTLYLQMSSLKSEDTAIYYCTRYGRDGSWFAYWGQGTLVTVSA VL: DIVMTQSPATLSVTPGDRVSLSCRTSQSIGDYLHWYQQKSHESPRLLIKYVSQSISGIPSRFSGSGSGSDFTLSINSVESEDVGVYYCQNSHSFPLTFGSGTKLELKR	5 nM
rec0266-0000-0010-VH_D98E (antibody, mouse IgG1, V domains shown) VH: DVKLVESGGGLVKPGGSLKLSCVASGFTFSSYTMSWVRQTPEKRLEWVATISGGGSHIYYADSVKGRFTISRDNAKNTLYLQMSSLKSEDTAIYYCTRDGREGSWFAYWGQGTLVTVSA VL: DIVMTQSPATLSVTPGDRVSLSCRTSQSIGDYLHWYQQKSHESPRLLIKYVSQSISGIPSRFSGSGSGSDFTLSINSVESEDVGVYYCQNSHSFPLTFGSGTKLELKR	4.9 nM
rec0266-0000-0010-VH_D95P (antibody, mouse IgG1, V domains shown) VH: DVKLVESGGGLVKPGGSLKLSCVASGFTFSSYTMSWVRQTPEKRLEWVATISGGGSHIYYADSVKGRFTISRDNAKNTLYLQMSSLKSEDTAIYYCTRPGRDGSWFAYWGQGTLVTVSA VL: DIVMTQSPATLSVTPGDRVSLSCRTSQSIGDYLHWYQQKSHESPRLLIKYVSQSISGIPSRFSGSGSGSDFTLSINSVESEDVGVYYCQNSHSFPLTFGSGTKLELKR	2.7 nM
rec0266-0000-0010-VH_D95H (antibody, mouse IgG1, V domains shown) VH: DVKLVESGGGLVKPGGSLKLSCVASGFTFSSYTMSWVRQTPEKRLEWVATISGGGSHIYYADSVKGRFTISRDNAKNTLYLQMSSLKSEDTAIYYCTRHGRDGSWFAYWGQGTLVTVSA VL: DIVMTQSPATLSVTPGDRVSLSCRTSQSIGDYLHWYQQKSHESPRLLIKYVSQSISGIPSRFSGSGSGSDFTLSINSVESEDVGVYYCQNSHSFPLTFGSGTKLELKR	6.5 nM
rec0266-0000-0010-VH_D95F (antibody, mouse IgG1, V domains shown) VH: DVKLVESGGGLVKPGGSLKLSCVASGFTFSSYTMSWVRQTPEKRLEWVATISGGGSHIYYADSVKGRFTISRDNAKNTLYLQMSSLKSEDTAIYYCTRFGRDGSWFAYWGQGTLVTVSA VL: DIVMTQSPATLSVTPGDRVSLSCRTSQSIGDYLHWYQQKSHESPRLLIKYVSQSISGIPSRFSGSGSGSDFTLSINSVESEDVGVYYCQNSHSFPLTFGSGTKLELKR	12 nM
rec0266-0000-0010-VH_D95K (antibody, mouse IgG1, V domains shown) VH: DVKLVESGGGLVKPGGSLKLSCVASGFTFSSYTMSWVRQTPEKRLEWVATISGGGSHIYYADSVKGRFTISRDNAKNTLYLQMSSLKSEDTAIYYCTRKGRDGSWFAYWGQGTLVTVSA VL: DIVMTQSPATLSVTPGDRVSLSCRTSQSIGDYLHWYQQKSHESPRLLIKYVSQSISGIPSRFSGSGSGSDFTLSINSVESEDVGVYYCQNSHSFPLTFGSGTKLELKR	12 nM
